Read-outs that look alike come from different tables or passages of the source. Blank lines part the entries; values can stand above or below the molecule they belong to.
B1: SRP72^1–163 (human SRP72 N-terminal TPR domain, SRP68-binding domain) (domain or fragment, UniProt O76094 1-163, looked up)
chain: MASGGSGGVSVPALWSEVNRYGQNGDFTRALKTVNKILQINKDDVTALHCKVVCLIQNGSFKEALNVINTHTKVLANNSLSFEKAYCEYRLNRIENALKTIESANQQTDKLKELYGQVLYRLERYDECLAVYRDLVRNSQDDYDEERKTNLSAVVAAQSNWEK

Legend:
[1] = Stability/solubility of SRP68 fragments and of SRP72 without cap; type: physicochemical; conditions: preliminary experiments
SEC = target: the molecule itself; test: SEC
AUC = target: the molecule itself; test: AUC
[2] = Size-exclusion chromatography; type: physicochemical; conditions: Superdex 75 10/300 GL; 20 mM Tris-HCl pH 8.0, 500 mM NaCl
[3] = target: T1, SRP72 V136A/R137A double mutant (human, UniProt O76094 1-163, V136A | R137A); test: pull-down
T1 sequence (looked up): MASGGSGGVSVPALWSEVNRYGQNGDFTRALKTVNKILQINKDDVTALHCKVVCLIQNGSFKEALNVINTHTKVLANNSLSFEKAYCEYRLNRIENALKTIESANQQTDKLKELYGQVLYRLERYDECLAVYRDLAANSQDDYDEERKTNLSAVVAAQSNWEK

[4] = target: B1; test: MST
[5] = ref Iakhiaeva et al., 2009, cited from earlier work
SRP68 = test: Binding ability of SRP72 mutants with Flag-tagged SRP68 from HCT116 cell lysate; type: cell-based, human; conditions: HCT116 cells
SRP72 = test: Binding ability of Flag-tagged SRP68 mutants from HCT116 cell lysate; type: cell-based, human; conditions: HCT116 cells; Flag-tagged SRP68 mutant from cell lysate

Molecule: 570–605: C-terminal SRP68 fragment from previous study (KQANLVHFPPGFQPIPCKPLFFDLALNHVAFPPLED; UniProt Q9UHB9 570-605, looked up, fragment) [reference compound]
degradation / solubility of fragment [1]: either prone to degradation or not soluble

Molecule: B1
stoichiometry N (SEC): 2 | stoichiometry N (AUC): 4

B2: V136A/R137A: monomeric double mutant of SRP72 in helix α8 (protein)
chain: MASGGSGGVSVPALWSEVNRYGQNGDFTRALKTVNKILQINKDDVTALHCKVVCLIQNGSFKEALNVINTHTKVLANNSLSFEKAYCEYRLNRIENALKTIESANQQTDKLKELYGQVLYRLERYDECLAVYRDLAANSQDDYDEERKTNLSAVVAAQSNWEK
modifications: left off: His6, N-terminal, state not stated
oligomeric state in solution (SEC) [2]: eluted as monomers

B3: apo-SRP72: human SRP72 N-terminal TPR domain, residues 1–163, apo form (protein)
chain: MASGGSGGVSVPALWSEVNRYGQNGDFTRALKTVNKILQINKDDVTALHCKVVCLIQNGSFKEALNVINTHTKVLANNSLSFEKAYCEYRLNRIENALKTIESANQQTDKLKELYGQVLYRLERYDECLAVYRDLVRNSQDDYDEERKTNLSAVVAAQSNWEK
modifications: left off: His6, N-terminal, cleaved
oligomeric state in solution (SEC) [2]: mainly as a dimer in solution

B4: Y132A/R133A: double mutant of SRP72 in helix α8 (protein)
chain: MASGGSGGVSVPALWSEVNRYGQNGDFTRALKTVNKILQINKDDVTALHCKVVCLIQNGSFKEALNVINTHTKVLANNSLSFEKAYCEYRLNRIENALKTIESANQQTDKLKELYGQVLYRLERYDECLAVAADLVRNSQDDYDEERKTNLSAVVAAQSNWEK
modifications: left off: His6, N-terminal, state not stated
oligomeric state in solution (SEC) [2]: eluted as monomers

binding result [3]: binds | Kd [4]: 730 ± 200 nM
Molecule: PLFFDLALNHVAFPPLEDKLEQK (peptide, UniProt Q9UHB9 588-610, looked up) [GST-tagged SRP68 residues 588−610 (23-residue peptide of SRP68)]

B5: residues 530–620: C-terminal SRP68 fragment from previous study (protein, UniProt Q9UHB9 530-620, looked up, fragment)
chain: AAILDANDAHQTETSSSQVKDNKPLVERFETFCLDPSLVTKQANLVHFPPGFQPIPCKPLFFDLALNHVAFPPLEDKLEQKTKSGLTGYIK
degradation / solubility of fragment [1]: either prone to degradation or not soluble

B6: SRP68/72 complex: heterodimer of SRP68 and SRP72 (protein, UniProt Q9UHB9 1-627; O76094 2-671, looked up)
Signal recognition particle … 1: MAAEKQVPGGGGGGGSGGGGGSGGGGSGGGRGAGGEENKENERPSAGSKANKEFGDSLSLEILQIIKESQQQHGLRHGDFQRYRGYCSRRQRRLRKTLNFKMGNRHKFTGKKVTEELLTDNRYLLLVLMDAERAWSYAMQLKQEANTEPRKRFHLLSRLRKAVKHAEELERLCESNRVDAKTKLEAQAYTAYLSGMLRFEHQEWKAAIEAFNKCKTIYEKLASAFTEEQAVLYNQRVEEISPNIRYCAYNIGDQSAINELMQMRLRSGGTEGLLAEKLEALITQTRAKQAATMSEVEWRGRTVPVKIDKVRIFLLGLADNEAAIVQAESEETKERLFESMLSECRDAIQVVREELKPDQKQRDYILEGEPGKVSNLQYLHSYLTYIKLSTAIKRNENMAKGLQRALLQQQPEDDSKRSPRPQDLIRLYDIILQNLVELLQLPGLEEDKAFQKEIGLKTLVFKAYRCFFIAQSYVLVKKWSEALVLYDRVLKYANEVNSDAGAFKNSLKDLPDVQELITQVRSEKCSLQAAAILDANDAHQTETSSSQVKDNKPLVERFETFCLDPSLVTKQANLVHFPPGFQPIPCKPLFFDLALNHVAFPPLEDKLEQKTKSGLTGYIKGIFGFRS
Signal recognition particle … 2: ASGGSGGVSVPALWSEVNRYGQNGDFTRALKTVNKILQINKDDVTALHCKVVCLIQNGSFKEALNVINTHTKVLANNSLSFEKAYCEYRLNRIENALKTIESANQQTDKLKELYGQVLYRLERYDECLAVYRDLVRNSQDDYDEERKTNLSAVVAAQSNWEKVVPENLGLQEGTHELCYNTACALIGQGQLNQAMKILQKAEDLCRRSLSEDTDGTEEDPQAELAIIHGQMAYILQLQGRTEEALQLYNQIIKLKPTDVGLLAVIANNIITINKDQNVFDSKKKVKLTNAEGVEFKLSKKQLQAIEFNKALLAMYTNQAEQCRKISASLQSQSPEHLLPVLIQAAQLCREKQHTKAIELLQEFSDQHPENAAEIKLTMAQLKISQGNISKACLILRSIEELKHKPGMVSALVTMYSHEEDIDSAIEVFTQAIQWYQNHQPKSPAHLSLIREAANFKLKYGRKKEAISDLQQLWKQNPKDIHTLAQLISAYSLVDPEKAKALSKHLPSSDSMSLKVDVEALENSAGATYIRKKGGKVTGDSQPKEQGQGDLKKKKKKKKGKLPKNYDPKVTPDPERWLPMRERSYYRGRKKGKKKDQIGKGTQGATAGASSELDASKTVSSPPTSPRPGSAATVSASTSNIIPPRHQKPAGAPATKKKQQQKKKKGGKGGW
complex stability ([5]; 1 M NaCl): remains stable | complex stability ([5]; 2 M urea): stability in 2 M urea

B7: SRP72 Y86C: cancer-associated SRP72 mutant (protein, UniProt O76094 2-671, looked up, variant Y86C)
Signal recognition particle …: ASGGSGGVSVPALWSEVNRYGQNGDFTRALKTVNKILQINKDDVTALHCKVVCLIQNGSFKEALNVINTHTKVLANNSLSFEKACCEYRLNRIENALKTIESANQQTDKLKELYGQVLYRLERYDECLAVYRDLVRNSQDDYDEERKTNLSAVVAAQSNWEKVVPENLGLQEGTHELCYNTACALIGQGQLNQAMKILQKAEDLCRRSLSEDTDGTEEDPQAELAIIHGQMAYILQLQGRTEEALQLYNQIIKLKPTDVGLLAVIANNIITINKDQNVFDSKKKVKLTNAEGVEFKLSKKQLQAIEFNKALLAMYTNQAEQCRKISASLQSQSPEHLLPVLIQAAQLCREKQHTKAIELLQEFSDQHPENAAEIKLTMAQLKISQGNISKACLILRSIEELKHKPGMVSALVTMYSHEEDIDSAIEVFTQAIQWYQNHQPKSPAHLSLIREAANFKLKYGRKKEAISDLQQLWKQNPKDIHTLAQLISAYSLVDPEKAKALSKHLPSSDSMSLKVDVEALENSAGATYIRKKGGKVTGDSQPKEQGQGDLKKKKKKKKGKLPKNYDPKVTPDPERWLPMRERSYYRGRKKGKKKDQIGKGTQGATAGASSELDASKTVSSPPTSPRPGSAATVSASTSNIIPPRHQKPAGAPATKKKQQQKKKKGGKGGW
binding ability compared with wild-type (HCT116) (SRP68): severely compromised or abolished the binding ability

B8: SRP72 V53I: cancer-associated SRP72 mutant (protein, UniProt O76094 2-671, looked up, variant V53I)
Signal recognition particle …: ASGGSGGVSVPALWSEVNRYGQNGDFTRALKTVNKILQINKDDVTALHCKVICLIQNGSFKEALNVINTHTKVLANNSLSFEKAYCEYRLNRIENALKTIESANQQTDKLKELYGQVLYRLERYDECLAVYRDLVRNSQDDYDEERKTNLSAVVAAQSNWEKVVPENLGLQEGTHELCYNTACALIGQGQLNQAMKILQKAEDLCRRSLSEDTDGTEEDPQAELAIIHGQMAYILQLQGRTEEALQLYNQIIKLKPTDVGLLAVIANNIITINKDQNVFDSKKKVKLTNAEGVEFKLSKKQLQAIEFNKALLAMYTNQAEQCRKISASLQSQSPEHLLPVLIQAAQLCREKQHTKAIELLQEFSDQHPENAAEIKLTMAQLKISQGNISKACLILRSIEELKHKPGMVSALVTMYSHEEDIDSAIEVFTQAIQWYQNHQPKSPAHLSLIREAANFKLKYGRKKEAISDLQQLWKQNPKDIHTLAQLISAYSLVDPEKAKALSKHLPSSDSMSLKVDVEALENSAGATYIRKKGGKVTGDSQPKEQGQGDLKKKKKKKKGKLPKNYDPKVTPDPERWLPMRERSYYRGRKKGKKKDQIGKGTQGATAGASSELDASKTVSSPPTSPRPGSAATVSASTSNIIPPRHQKPAGAPATKKKQQQKKKKGGKGGW
binding ability compared with wild-type (HCT116) (SRP68): severely compromised or abolished the binding ability

B9: SRP68 F590L: cancer-associated SRP68 mutant (protein, UniProt Q9UHB9 1-627, looked up, variant F590L)
Signal recognition particle …: MAAEKQVPGGGGGGGSGGGGGSGGGGSGGGRGAGGEENKENERPSAGSKANKEFGDSLSLEILQIIKESQQQHGLRHGDFQRYRGYCSRRQRRLRKTLNFKMGNRHKFTGKKVTEELLTDNRYLLLVLMDAERAWSYAMQLKQEANTEPRKRFHLLSRLRKAVKHAEELERLCESNRVDAKTKLEAQAYTAYLSGMLRFEHQEWKAAIEAFNKCKTIYEKLASAFTEEQAVLYNQRVEEISPNIRYCAYNIGDQSAINELMQMRLRSGGTEGLLAEKLEALITQTRAKQAATMSEVEWRGRTVPVKIDKVRIFLLGLADNEAAIVQAESEETKERLFESMLSECRDAIQVVREELKPDQKQRDYILEGEPGKVSNLQYLHSYLTYIKLSTAIKRNENMAKGLQRALLQQQPEDDSKRSPRPQDLIRLYDIILQNLVELLQLPGLEEDKAFQKEIGLKTLVFKAYRCFFIAQSYVLVKKWSEALVLYDRVLKYANEVNSDAGAFKNSLKDLPDVQELITQVRSEKCSLQAAAILDANDAHQTETSSSQVKDNKPLVERFETFCLDPSLVTKQANLVHFPPGFQPIPCKPLLFDLALNHVAFPPLEDKLEQKTKSGLTGYIKGIFGFRS
binding ability compared with wild-type (HCT116) (SRP72): severely compromised or abolished the binding ability

Source: PMC5907831 (Journal of Molecular Cell Biology, 2017)
